Assay results from patent publication EP2966085A1.

molecular target: CD20 (human) (UniProt P11836); experiment: cell-based or functional assay
UniProt P11836, sequence (P11836 whole entry): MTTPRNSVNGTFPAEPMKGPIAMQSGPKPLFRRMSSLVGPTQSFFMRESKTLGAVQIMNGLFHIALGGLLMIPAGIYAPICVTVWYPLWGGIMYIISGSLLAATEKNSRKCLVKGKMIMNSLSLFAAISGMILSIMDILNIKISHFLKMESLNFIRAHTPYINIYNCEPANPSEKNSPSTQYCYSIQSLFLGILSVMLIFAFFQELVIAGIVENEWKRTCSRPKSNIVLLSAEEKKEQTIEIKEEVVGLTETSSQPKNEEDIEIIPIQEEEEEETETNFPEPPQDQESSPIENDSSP

Substance | Mean normalised apoptosis % (Ramos cells), with cross-linking mAb [%] | Mean normalised apoptosis % (Ramos cells), without cross-linking mAb [%]
mAb1 IgG1 (equivalent to rituximab), unmodified IgG1 control (antibody) | 278 | –
mAb1 IgG1 mutant C220G (antibody) | 359 | 106
mAb1 IgG1 mutant G137E-G138S (antibody) | 332 | 78
mAb1 IgG1 mutant H224P (antibody) | 322 | 106
